Here are results for 27 molecules from patent US20220089698A1 (published 2022).

Positions count from the first letter of the chain named.

Experiment [1] deals with HIV gp120 Bal (HIV). The experiment is described as follows: single-point ELISA. Also: test concentration or dose not given here.
Experiment [2] deals with HIV gp120 CAAN (HIV). As to the kind of experiment: single-point ELISA. Also: test concentration or dose not given here. Background: In an ELISA, binding on a coated surface is turned into a signal by an enzyme label.

B1: 1.1.31-1 (antibody, human IgG1, kappa)
heavy: QVQLLQSGAAVTKPGASVRVSCEASGYNIRDYFIHWWRQAPGQGLQWVGWINPKTGQPNNPRQFQGRVSLTRHASWDFDTFSFYMDLKALRSDDTAVYFCARQRSDYWDFDVWGSGTQVTVSSASTKGPSVFPLAPSSKSTSGGTAALGCLVKDYFPEPVTVSWNSGALTSGVHTFPAVLQSSGLYSLSSVVTVPSSSLGTQTYICNVNHKPSNTKVDKKVEPKSCDKTHTCPPCPAPELLAGPDVFLFPPKPKDTLMISRTPEVTCVVVDVSHEDPEVKFNWYVDGVEVHNAKTKPREEQYNSTYRVVSVLTVLHQDWLNGKEYKCKVSNKALPLPEEKTISKAKGQPREPQVYTLPPSREEMTKNQVSLTCLVKGFYPSDIAVEWESNGQPENNYKTTPPVLDSDGSFFLYSKLTVDKSRWQQGNVFSCSVLHEALHSHYTQKSLSLSPGK
light: DIQMTQSPSSLSASVGDTVTITCQANGYLNWYQQRRGKAPKLLIYDGSKLERGVPSRFSGRRWGQEYTLTISSLQPEDIATYFCQVYEFVVPGTNLDLKRTVAAPSVFIFPPSDEQLKSGTASVVCLLNNFYPREAKVQWKVDNALQSGNSQESVTEQDSKDSTYSLSSTLTLSKADYEKHKVYACEVTHQGLSSPVTKSFNRGEC
With B1, the results for the “ELISA (A450)” value in experiment [1] and in experiment [2] were 0.87 A450 and 0.96 A450, respectively.

B2: 1.35.31-1 (antibody, human IgG1, kappa)
heavy: QVQLVQSGAEVKKPGASVRVSCKASGYNIRDYFMHWWRQAPGQGLQWVGWINPKTGQPNNPRQFQGRVTMTRHASWDFDTFSFYMDLSRLRSDDTATYFCARQRTDYWDFDVWGQGTMVTVSSASTKGPSVFPLAPSSKSTSGGTAALGCLVKDYFPEPVTVSWNSGALTSGVHTFPAVLQSSGLYSLSSVVTVPSSSLGTQTYICNVNHKPSNTKVDKKVEPKSCDKTHTCPPCPAPELLAGPDVFLFPPKPKDTLMISRTPEVTCVVVDVSHEDPEVKFNWYVDGVEVHNAKTKPREEQYNSTYRVVSVLTVLHQDWLNGKEYKCKVSNKALPLPEEKTISKAKGQPREPQVYTLPPSREEMTKNQVSLTCLVKGFYPSDIAVEWESNGQPENNYKTTPPVLDSDGSFFLYSKLTVDKSRWQQGNVFSCSVLHEALHSHYTQKSLSLSPGK
light: B1 light
On to B2, for which the “ELISA (A450)” value in experiment [1] came out at 1.05 A450; in experiment [2], 0.99 A450.

B3: 1.1.34-1 (antibody, human IgG1, kappa)
heavy: B1 heavy
light: B1 light with K49N, V91T, N95R, L98I
With B3, the “ELISA (A450)” value in experiment [1] amounted to 0.9 A450; in experiment [2] it was 0.96 A450.

B4: 1.32.32-1 (antibody, human IgG1, kappa)
heavy: B1 heavy with L5V, A10E, S105T
light: B1 light with V91T, N95R
For the molecule B4, the “ELISA (A450)” value in experiment [1] came to 0.89 A450; in experiment [2], 0.9 A450.

B5: 1.32.34-1 (antibody, human IgG1, kappa)
heavy: B1 heavy with L5V, A10E, S105T
light: B1 light with K49N, V91T, N95R, L98I
As to B5, the figures for the “ELISA (A450)” value in experiment [1] and in experiment [2] were 0.81 A450 and 0.86 A450, respectively.

B6: 1.35.32-1 (antibody, human IgG1, kappa)
heavy: B2 heavy
light: B1 light with V91T, N95R
Regarding B6, the “ELISA (A450)” value in experiment [1] stood at 0.96 A450; in experiment [2], 1.01 A450.

B7: 1.31.31-1 (antibody, human IgG1, kappa)
heavy: B1 heavy with L5V, A10E, V97T
light: B1 light
As for B7, the “ELISA (A450)” value in experiment [1] turned out to be 0.98 A450; in experiment [2] it was 1.02 A450.

B8: 1.36.32-1 (antibody, human IgG1, kappa)
heavy: B2 heavy with F83A
light: B1 light with V91T, N95R
For the molecule B8, the “ELISA (A450)” value was found to be 0.96 A450 in experiment [1] and 0.5 A450 in experiment [2].

B9: 1.36.34-1 (antibody, human IgG1, kappa)
heavy: B2 heavy with F83A
light: B1 light with K49N, V91T, N95R, L98I
For the molecule B9, the “ELISA (A450)” value in experiment [1] turned out to be 1.01 A450; in experiment [2], 0.43 A450.

B10: 1.34.34-1 (antibody, human IgG1, kappa)
heavy: B1 heavy with L5V, A10E, T12K, E23K, S69T, S105T
light: B1 light with K49N, V91T, N95R, L98I
B10: the “ELISA (A450)” value in experiment [1] worked out at 0.89 A450; in experiment [2] it was 0.88 A450.

B11: 1.34.32-1 (antibody, human IgG1, kappa)
heavy: B1 heavy with L5V, A10E, T12K, E23K, S69T, S105T
light: B1 light with V91T, N95R
On to B11, for which the “ELISA (A450)” value in experiment [1] was determined as 0.93 A450; in experiment [2] it was 0.97 A450.

B12: 1.32.33-1 (antibody, human IgG1, kappa)
heavy: B1 heavy with L5V, A10E, S105T
light: B1 light with K49N, L98I
Take B12: the “ELISA (A450)” value is 0.93 A450 in experiment [1] and 0.68 A450 in experiment [2].

B13: 1.33.31-1 (antibody, human IgG1, kappa)
heavy: B1 heavy with L5V, A10E, T12K, E23K, S69T, V97T
light: B1 light
Turning to B13, the figures for the “ELISA (A450)” value in experiment [1] and in experiment [2] were 0.92 A450 and 1.18 A450, respectively.

B14: 1.34.33-1 (antibody, human IgG1, kappa)
heavy: B1 heavy with L5V, A10E, T12K, E23K, S69T, S105T
light: B1 light with K49N, L98I
With B14, the “ELISA (A450)” value in experiment [1] stood at 1.1 A450; in experiment [2] it was 1.04 A450.

B15: 1.35.33-1 (antibody, human IgG1, kappa)
heavy: B2 heavy
light: B1 light with K49N, L98I
B15: the “ELISA (A450)” value was determined as 0.9 A450 in experiment [1] and 0.91 A450 in experiment [2].

B16: 1.1.32-1 (antibody, human IgG1, kappa)
heavy: B1 heavy
light: B1 light with V91T, N95R
In the case of B16, the “ELISA (A450)” value in experiment [1] came to 0.93 A450; in experiment [2], 1.04 A450.

B17: 1.31.33-1 (antibody, human IgG1, kappa)
heavy: B1 heavy with L5V, A10E, V97T
light: B1 light with K49N, L98I
Consider B17, for which the figures for the “ELISA (A450)” value in experiment [1] and in experiment [2] were 0.89 A450 and 0.86 A450, respectively.

B18: 1.33.34-1 (antibody, human IgG1, kappa)
heavy: B1 heavy with L5V, A10E, T12K, E23K, S69T, V97T
light: B1 light with K49N, V91T, N95R, L98I
Regarding B18, the “ELISA (A450)” value in experiment [1] and in experiment [2] was 0.95 A450 in each case.

B19: 1.1.33-1 (antibody, human IgG1, kappa)
heavy: B1 heavy
light: B1 light with K49N, L98I
B19: the “ELISA (A450)” value in experiment [1] was 0.87 A450; in experiment [2], 0.94 A450.

B20: 1.33.33-1 (antibody, human IgG1, kappa)
heavy: B1 heavy with L5V, A10E, T12K, E23K, S69T, V97T
light: B1 light with K49N, L98I
With B20, the “ELISA (A450)” value was 1.09 A450 in experiment [1] and 1.06 A450 in experiment [2].

B21: 1.32.31-1 (antibody, human IgG1, kappa)
heavy: B1 heavy with L5V, A10E, S105T
light: B1 light
B21: the “ELISA (A450)” value was 0.95 A450 in experiment [1] and 0.9 A450 in experiment [2].

B22: 1.34.31-1 (antibody, human IgG1, kappa)
heavy: B1 heavy with L5V, A10E, T12K, E23K, S69T, S105T
light: B1 light
Turning to B22, the entries for the “ELISA (A450)” value in experiment [1] and in experiment [2] were 0.91 A450 and 0.92 A450, respectively.

B23: 1.33.32-1 (antibody, human IgG1, kappa)
heavy: B1 heavy with L5V, A10E, T12K, E23K, S69T, V97T
light: B1 light with V91T, N95R
For the molecule B23, the results for the “ELISA (A450)” value in experiment [1] and in experiment [2] were 0.98 A450 and 1.13 A450, respectively.

B24: 1.31.34-1 (antibody, human IgG1, kappa)
heavy: B1 heavy with L5V, A10E, V97T
light: B1 light with K49N, V91T, N95R, L98I
Turning to B24, the “ELISA (A450)” value in experiment [1] turned out to be 0.76 A450; in experiment [2], 0.86 A450.

B25: 1.35.34-1 (antibody, human IgG1, kappa)
heavy: B2 heavy
light: B1 light with K49N, V91T, N95R, L98I
As for B25, the “ELISA (A450)” value in experiment [1] amounted to 1 A450; in experiment [2], 0.85 A450.

B26: 1.31.32-1 (antibody, human IgG1, kappa)
heavy: B1 heavy with L5V, A10E, V97T
light: B1 light with V91T, N95R
As to B26, the “ELISA (A450)” value is 0.98 A450 in experiment [1] and 1.04 A450 in experiment [2].

B27: 1.1.35-1 (antibody, human IgG1, kappa, V domains shown)
VH: QVQLLQSGAAVTKPGASVRVSCEASGYNIRDYFIHWWRQAPGQGLQWVGWINPKTGQPNNPRQFQGRVSLTRHASWDFDTFSFYMDLKALRSDDTAVYFCARQRSDYWDFDVWGSGTQVTVSS
VL: DIQMTQSPSSLSASVGDRVTITCQANGYLNWYQQKPGKAPKLLIYDGSNLETGVPSRFSGSRWGQEYTLTISSLQPEDIATYFCQVYEFVGPGTNLDIKR
B27: the “ELISA (A450)” value in experiment [1] turned out to be 0.96 A450; in experiment [2] it was 0.75 A450.
